The results in this text go back to patent US8580556B2, “Sulfonylurea-responsive repressor proteins” (E. I. du Pont de Nemours and Company, priority 2008, dated 2013).

This series relates to tetA promoter (PtetA)-lacZ reporter in E. coli KM3. The series is classed as cell-based. Particulars: for relative β-galactosidase activity, inducer Blank / relative β-galactosidase activity, inducer None / relative β-galactosidase activity, No inducer: no inducer; for Inducer preference: Table 8, inducers given as numbers without key.
The mark [1] stands for this setting: Table 6, reverse repressor hits, anhydrotetracycline.
[2] abbreviates: Table 6, reverse repressor hits, chlorimuron, same plate assay format as Table 4.
Setting [3] is: Table 6, reverse repressor hits, chlorsulfuron, same plate assay format as Table 4.
[4] abbreviates: Table 6, reverse repressor hits, ethametsulfuron, same plate assay format as Table 4.
Setting [5] is: Table 6, reverse repressor hits, metsulfuron, same plate assay format as Table 4.
[6] abbreviates: Table 6, reverse repressor hits, nicosulfuron, same plate assay format as Table 4.
Setting [7] is: Table 6, reverse repressor hits.
Where [8] appears, read: Table 6, reverse repressor hits, rimsulfuron, same plate assay format as Table 4.
Where [9] appears, read: Table 6, reverse repressor hits, sulfometuron, same plate assay format as Table 4.
The mark [10] stands for this setting: Table 6, reverse repressor hits, thifensulfuron, same plate assay format as Table 4.
Where [11] appears, read: Table 6, reverse repressor hits, tribenuron, same plate assay format as Table 4.
Setting [12] is: Table 4, anhydrotetracycline 0.4 μM, 48 hrs at 30° C.
Where [13] appears, read: Table 4, chlorimuron 20 μg/ml (20 ppm), 48 hrs at 30° C.
The mark [14] stands for this setting: Table 4, chlorsulfuron 20 μg/ml (20 ppm), 48 hrs at 30° C.
The mark [15] stands for this setting: Table 4, ethametsulfuron 20 μg/ml (20 ppm), 48 hrs at 30° C.
The mark [16] stands for this setting: Table 4, metsulfuron 20 μg/ml (20 ppm), 48 hrs at 30° C.
The mark [17] stands for this setting: Table 4, nicosulfuron 20 μg/ml (20 ppm), 48 hrs at 30° C.
Setting [18] is: Table 4, rimsulfuron 20 μg/ml (20 ppm), 48 hrs at 30° C.
Where [19] appears, read: Table 4, sulfometuron 20 μg/ml (20 ppm), 48 hrs at 30° C.
[20] abbreviates: Table 4, thifensulfuron 20 μg/ml (20 ppm), 48 hrs at 30° C.
The mark [21] stands for this setting: Table 4, tribenuron 20 μg/ml (20 ppm), 48 hrs at 30° C.
[22] abbreviates: Table 10, chlorsulfuron 2 ppm, 48 hours at 30° C.
Where [23] appears, read: Table 10, ethametsulfuron 2 ppm, 48 hours at 30° C.
Setting [24] is: Table 10, metsulfuron 2 ppm, 48 hours at 30° C.
Where [25] appears, read: Table 10, sulfometuron 2 ppm, 48 hours at 30° C.

Read-outs that look alike come from different tables or passages of the source.

B1: L1-39: library L1 reverse repressor hit (SEQ ID NO: 1206-1213) (protein)
chain: MGSRLDKSKVINSALELLNEVGIEGLTTRKLAQKLGVEQPTLYWHVKNKRALLDALAIEMMDRHQTHFCPLEGESWQDFLRNTAKSYRCALLSHRDGAKVILGTRWTEKQYETRENVLAFLCQQGFSLENALYAWAAVGPFTLGCVLRDQERQVAKEERETPTTDSMPPLLRQALELMDHQGAEPAFLFGLELIICGLEKQLKCESGS
modifications: rSuR L1-39
As to B1, the “relative β-galactosidase activity, inducer atc” value under setting [1] is recorded as 4.92. Besides, under setting [2], the “relative β-galactosidase activity, inducer Ci” value came to 0.49. The “relative β-galactosidase activity, inducer Cs” value under setting [3] is 0.89. Also, under setting [4], the “relative β-galactosidase activity, inducer Es” value amounted to 0.60. The “relative β-galactosidase activity, inducer Ms” value under setting [5] was 0.75. Under setting [6], the “relative β-galactosidase activity, inducer Ns” value is reported as 3.03. Further, the “relative β-galactosidase activity, inducer Blank” value under setting [7] is recorded as 3.65. Moreover, the “relative β-galactosidase activity, inducer Rs” value under setting [8] is given as 4.72. Besides, the “relative β-galactosidase activity, inducer Sm” value under setting [9] turned out to be 0.91. Under setting [10], the “relative β-galactosidase activity, inducer Ts” value stood at 1.42. For the same molecule, the “relative β-galactosidase activity, inducer Tb” value under setting [11] is 0.97.

B2: L1-38: library L1 hit, sulfonylurea-responsive TetR(B) variant (protein)
chain: MGSRLDKSKVINSALELLNEVGIEGLTTRKLAQKLGVEQPTLYWHVKNKRALLDALAIEMADRHHTHFCPLEGESWQDFLRNNAKSMRCALLSHRDGAKVWLGTAWTEKQYETTENMLAFLCQQGFSLENALYAWRAVTMFTLGCVLRDQEWQVAKEERETPTTDSMPPLLRQALELGDHQGAEPAFLFGLELIICGLEKQLKCESGS
modifications: Sulfonylurea responsive repressor L1-38
For the molecule B2, under setting [12], the “relative β-galactosidase activity, inducer atc” value is recorded as 6.4. Besides, the “relative β-galactosidase activity, inducer Ci” value under setting [13] stood at 15.3. In addition, the “relative β-galactosidase activity, inducer Cs” value under setting [14] is given as 14.0. For the same molecule, under setting [15], the “relative β-galactosidase activity, inducer Es” value is 14.8. Besides, under setting [16], the “relative β-galactosidase activity, inducer Ms” value is recorded as 14.7. Further, the “relative β-galactosidase activity, inducer Ns” value under setting [17] was found to be 8.7. In addition, where the note is “Table 4, 48 hrs at 30° C.”, the “relative β-galactosidase activity, inducer None” value was 9.5. For the same molecule, under setting [18], the “relative β-galactosidase activity, inducer Rs” value was determined as 9.5. Under setting [19], the “relative β-galactosidase activity, inducer Sm” value turned out to be 18.3. In addition, the “relative β-galactosidase activity, inducer Ts” value under setting [20] is 16.7. Under setting [21], the “relative β-galactosidase activity, inducer Tb” value is on record as 15.8.

B3: L1-7: library L1 hit, sulfonylurea-responsive TetR(B) variant, SEQ ID NO: 4 (protein)
chain: MGSRLDKSKVINSALELLNEVGIEGLTTRKLAQKLGVEQPTLYWHVKNKRALLDALAIEMLDRHNTHFCPLEGESWQDFLRNNAKSWRCALLSHRDGAKVVLGTAITEKQYETHENPLAFLCQQGFSLENALYAIAAVRRFTLGCVLVDQERQVAKEERETPTTDSMPPLLRQASELQDHQGAEPAFLFGLELIICGLEKQLKCERGS
modifications: Sulfonylurea responsive repressor L1-07
In the case of B3, the “relative β-galactosidase activity, inducer atc” value under setting [12] was 0.0. Besides, the “relative β-galactosidase activity, inducer Ci” value under setting [13] was found to be 16.5. Besides, under setting [14], the “relative β-galactosidase activity, inducer Cs” value is reported as 3.1. Under setting [15], the “relative β-galactosidase activity, inducer Es” value stood at 0.1. Besides, under setting [16], the “relative β-galactosidase activity, inducer Ms” value stood at 0.2. For the same molecule, the “relative β-galactosidase activity, inducer Ns” value under setting [17] was found to be 0.1. For the same molecule, where the note is “Table 4, 48 hrs at 30° C.”, the “relative β-galactosidase activity, inducer None” value is recorded as 0.0. For the same molecule, the “relative β-galactosidase activity, inducer Rs” value under setting [18] worked out at 0.2. Under setting [19], the “relative β-galactosidase activity, inducer Sm” value came out at 6.4. Besides, under setting [20], the “relative β-galactosidase activity, inducer Ts” value is 0.1. Further, the “relative β-galactosidase activity, inducer Tb” value under setting [21] amounted to 0.2.

B4: L1-41: library L1 reverse repressor hit (SEQ ID NO: 1206-1213) (protein)
chain: MGSRLDKSKVINSALELLNEVGIEGLTTRKLAQKLGVEQPTLYWHVKNKRALLDALAIEMLDRNQTHFCPLEGESWQDFLRNNAKSWRCALLSHRDGAKVMLGTRNTEKQYETAENGLAFLCQQGFSLENALYACRAVWTFTLGCVLDDQETQVAKEERETPTSDSMPPLLRQAMELKDHQGAEPAFLFGLELIICGLEKQLKCESGS
modifications: rSuR L1-41
As to B4, the “relative β-galactosidase activity, inducer atc” value under setting [1] is on record as 4.21. Further, the “relative β-galactosidase activity, inducer Ci” value under setting [2] came out at 0.39. For the same molecule, the “relative β-galactosidase activity, inducer Cs” value under setting [3] came out at 0.61. For the same molecule, the “relative β-galactosidase activity, inducer Es” value under setting [4] is reported as 0.18. Moreover, the “relative β-galactosidase activity, inducer Ms” value under setting [5] amounted to 0.56. Further, the “relative β-galactosidase activity, inducer Ns” value under setting [6] is 2.75. In addition, under setting [7], the “relative β-galactosidase activity, inducer Blank” value was 4.05. Also, under setting [8], the “relative β-galactosidase activity, inducer Rs” value was 4.05. The “relative β-galactosidase activity, inducer Sm” value under setting [9] is given as 0.67. Under setting [10], the “relative β-galactosidase activity, inducer Ts” value came out at 1.46. Besides, under setting [11], the “relative β-galactosidase activity, inducer Tb” value is listed as 1.41.

B5: L1-44: library L1 hit, sulfonylurea-responsive TetR(B) variant, SEQ ID NO: 13 (protein)
chain: MGSRLDKSKVINSALELLNEVGIEGLTTRKLAQKLGVEQPTLYWHVKNKRALLDALAIEMLDRHATHFCPLEGESWQDFLRNNAKSYRCALLSHRDGAKVYLGTAVTEKQYETAENQLAFLCQQGFSLENALYAVKAVAGFTLGCVLWDQESQVAKEERETPTTASMPPLLRQAVELADHQGAEPAFLFGLELIICGLEKQLKCESGS
modifications: Sulfonylurea responsive repressor L1-44
As for B5, the Inducer preference was 9 (weak). For the same molecule, the “relative β-galactosidase activity, inducer atc” value under setting [12] was 0.2. Moreover, the “relative β-galactosidase activity, inducer Ci” value under setting [13] is given as 6.7. Further, under setting [17], the “relative β-galactosidase activity, inducer Ns” value amounted to 0.4. Besides, where the note is “Table 4, 48 hrs at 30° C.”, the “relative β-galactosidase activity, inducer None” value turned out to be 0.2. The “relative β-galactosidase activity, inducer Rs” value under setting [18] is reported as 0.3. For the same molecule, the “relative β-galactosidase activity, inducer Sm” value under setting [19] is reported as 0.4. In addition, the “relative β-galactosidase activity, inducer Ts” value under setting [20] is listed as 1.9. Besides, the “relative β-galactosidase activity, inducer Tb” value under setting [21] was found to be 0.4. The “relative β-galactosidase activity, inducer Cs” value under setting [22] is reported as 1.9. Further, the “relative β-galactosidase activity, inducer Es” value under setting [23] is on record as 1.0. In addition, the “relative β-galactosidase activity, inducer Ms” value under setting [24] stood at 0.5. The “relative β-galactosidase activity, No inducer” value (Table 10, 48 hours at 30° C.) stood at 0.6. Under setting [25], the “relative β-galactosidase activity, inducer Sm” value is 0.6.

B6: L1-22: library L1 hit, sulfonylurea-responsive TetR(B) variant, SEQ ID NO: 7 (protein)
chain: MGSRLDKSKVINSALELLNEVGIEGLTTRKLAQKLGVEQPTLYWHVKNKRALLDALAIEMMDRHHTHFCPLEGESWQDFLRNTAKSYRCALLSHRDGAKVCLGTAITEKQYETKENNLAFLCQQGFSLENALYARQAVRVFTLGCVLFDQEMQVAKEERETPTTDSMPPLLRQASELLDHQGAEPAFLFGLELIICGLEKQLKSESGS
modifications: Sulfornylurea responsive repressor L1-22
Turning to B6, the Inducer preference was 3. Further, under setting [12], the “relative β-galactosidase activity, inducer atc” value worked out at 0.0. Under setting [13], the “relative β-galactosidase activity, inducer Ci” value was 10.4. In addition, under setting [14], the “relative β-galactosidase activity, inducer Cs” value is 0.2. Also, the “relative β-galactosidase activity, inducer Es” value under setting [15] was determined as 0.3. For the same molecule, the “relative β-galactosidase activity, inducer Ms” value under setting [16] was determined as 0.1. For the same molecule, the “relative β-galactosidase activity, inducer Ns” value under setting [17] worked out at 0.2. Besides, where the note is “Table 4, 48 hrs at 30° C.”, the “relative β-galactosidase activity, inducer None” value was determined as 0.1. In addition, under setting [18], the “relative β-galactosidase activity, inducer Rs” value came out at 0.1. In addition, the “relative β-galactosidase activity, inducer Ts” value under setting [20] came out at 0.0. Besides, the “relative β-galactosidase activity, inducer Tb” value under setting [21] is listed as 0.3. Besides, under setting [22], the “relative β-galactosidase activity, inducer Cs” value worked out at 0.2. For the same molecule, the “relative β-galactosidase activity, inducer Es” value under setting [23] was determined as 0.2. The “relative β-galactosidase activity, inducer Ms” value under setting [24] was 0.2. The “relative β-galactosidase activity, No inducer” value (Table 10, 48 hours at 30° C.) is 0.2. For the same molecule, the “relative β-galactosidase activity, inducer Sm” value under setting [25] stood at 1.8.

B7: L1-36: library L1 reverse repressor hit (SEQ ID NO: 1206-1213) (protein)
chain: MGSRLDKSKVINSALELLNEVGIEGLTTRKLAQKLGVEQPTLYWHVKNKRALLDALAIEMADRHHTHFCPLEGESWQDFLRNAAKSMRCALLSHRDGAKVRLGTAWTEKQYETHENVLAFLCQQGFSLENALYALKAVSGFTLGCVLKDQEMQVAKEERETPTTDSMPPLLRQATELVDHQGAEPAFLFGLELIICGLEKQLKCESGS
modifications: rSuR L1-36
B7: the “relative β-galactosidase activity, inducer atc” value under setting [1] worked out at 1.70. Under setting [2], the “relative β-galactosidase activity, inducer Ci” value is on record as 0.21. For the same molecule, under setting [3], the “relative β-galactosidase activity, inducer Cs” value amounted to 0.24. Further, the “relative β-galactosidase activity, inducer Es” value under setting [4] is 0.20. For the same molecule, the “relative β-galactosidase activity, inducer Ms” value under setting [5] is given as 0.38. Moreover, under setting [6], the “relative β-galactosidase activity, inducer Ns” value was 1.81. In addition, the “relative β-galactosidase activity, inducer Blank” value under setting [7] was found to be 1.52. The “relative β-galactosidase activity, inducer Rs” value under setting [8] is 1.84. For the same molecule, under setting [9], the “relative β-galactosidase activity, inducer Sm” value is 0.50. Besides, the “relative β-galactosidase activity, inducer Ts” value under setting [10] is on record as 0.48. Besides, the “relative β-galactosidase activity, inducer Tb” value under setting [11] is 0.57.
